For three molecules, Kd results are on record in PMC4850381 (2016).

Substitutions are numbered along the chain they refer to.

For experiment [1], the target named is T1, tree shrew CRHR1 extracellular domain (tree shrew).
T1 chain: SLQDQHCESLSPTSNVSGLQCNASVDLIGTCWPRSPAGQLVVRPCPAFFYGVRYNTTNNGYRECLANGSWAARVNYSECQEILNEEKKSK
The experiment is described as follows: SPR; BIACORE3000; CRHR1-ECD immobilised on the sensor chip (about 2000 RU, 10 mM NaAc pH 4.5); CRH peptides serially diluted (5 concentrations) in PBS pH 7.4, 30 μl/min, 3 min injection, 2 min dissociation, 25 °C. A general note: In SPR one partner is held on a chip, and binding of the other changes the refractive index at the surface.

In experiment [2] the target is T2, human CRHR1 extracellular domain (human).
T2 chain: T1 chain with P12L, T13A, V16I
The experiment is described as follows: SPR.

Experiment [3] has as its target T1, tree shrew CRHR1 extracellular domain. Put plainly: SPR.
Experiment [4] concerns the target T2, human CRHR1 extracellular domain. The experiment is described as follows: SPR; BIACORE3000; CRHR1-ECD immobilised on the sensor chip (about 2000 RU, 10 mM NaAc pH 4.5); CRH peptides serially diluted (5 concentrations) in PBS pH 7.4, 30 μl/min, 3 min injection, 2 min dissociation, 25 °C.

In general, Kd refers to the equilibrium constant for the complex coming apart. In the case of “tree shrew corticotrophin-releasing hormone (CRH) peptide”, in experiment [1], the Kd came out at 0.176 µM.

B1: tree shrew corticotrophin-releasing hormone (CRH) peptide (peptide)
chain: SEEPPISLDLTFHLLREVLEMARAEQLAQQAHSNRKLMEMI
As for B1, the values for the dissociation constant (Kd) in experiment [2] and in experiment [3] were 2.05 µM and 1.76 µM, respectively.

B2: human corticotrophin-releasing hormone (CRH) peptide (peptide)
peptide: SEEPPISLDLTFHLLREVLEMARAEQLAQQAHSNRKLMEIIGK
B2: the Kd amounted to 0.211 µM in experiment [4], 2.11 µM in experiment [2] and 1.46 µM in experiment [3].
